In US20250027945A1 (University of California, published 2025):

What was measured:
[1] = molecular target: T1, human RYK on the surface of human tumor cell lines (human, UniProt P34925 46-607); experiment: flow cytometry, A673 cells (Ewings sarcoma), 5 ug/ml 2-D11-Alexa647
T1 construct: whole, on cells; Endogenous expression
Experimental: (§1) Table 1 provides the flow cytometry data on various cancer cell lines stained with fluorochrome-conjugated 2-D11, as depicted in FIG. 8. The name of each cell line is listed in the first column and the tissue of origin is listed in the second column. Binding of the 2-D11 mAb to human RYK was assessed by flow cytometric staining and analysis by staining on ice for 20 minutes with 5 μg/ml of 2-D11 anti-human RYK-Alexa647 conjugated mAb or equal amounts of isotype matched control mAb, washed, and analyzed. The median fluorescence intensity (MFI) of 2-D11 stained cells is listed in the middle column and the MFI of isotype control stained cells are listed in the in the adjacent column. Cell lines were scored as “++”, “+”, or neg (unmarked with “+”) lines based on the ratio of median fluorescence intensity (MFI) of stained cells relative to the MFI of isotype control stained cells (MFIR).
(§2) The name of each cell line is listed in the first column and the tissue of origin is listed in the second column. Binding of the 2-D11 mAb to human RYK was assessed by flow cytometric staining and analysis by staining on ice for 20 minutes with 5 μg/ml of 2-D11 anti-human RYK-Alexa647 conjugated mAb or equal amounts of isotype matched control mAb, washed and analyzed. […]

[2] = molecular target: T1, human RYK on the surface of human tumor …; experiment: flow cytometry, T47-D cells (breast), 5 ug/ml 2-D11-Alexa647
Experimental: as §1, §2

[3] = molecular target: T1, human RYK on the surface of human tumor …; experiment: flow cytometry, SK-MEL-2 cells (skin), 5 ug/ml 2-D11-Alexa647; line unmarked (no staining)
Experimental: as §1, §2

[4] = molecular target: T1, human RYK on the surface of human tumor …; experiment: flow cytometry, HS-578T cells (breast), 5 ug/ml 2-D11-Alexa647
Experimental: as §1, §2

[5] = molecular target: T1, human RYK on the surface of human tumor …; experiment: flow cytometry, HELA cells (ovarian as printed), 5 ug/ml 2-D11-Alexa647; line unmarked (no staining)
Experimental: as §1, §2

[6] = molecular target: T1, human RYK on the surface of human tumor …; experiment: flow cytometry, MCF7 cells (breast), 5 ug/ml 2-D11-Alexa647; line unmarked (no staining)
Experimental: as §1, §2

[7] = molecular target: T1, human RYK on the surface of human tumor …; experiment: flow cytometry, JURKAT cells (T-cell ALL), 5 ug/ml 2-D11-Alexa647; line unmarked (no staining)
Experimental: as §1, §2

[8] = molecular target: T2, recombinant human RYK protein used in KinExA (human, UniProt P34925 46-227, limits assumed); experiment: KinExA 3200, soluble RYK competitor against RYK-coated particles
T2 construct: Legend prints 'RYK2'; also called recombinant human RYK2 protein
Experimental: Analysis was performed using a KinExA 3200 instrument. FIG. 7A: The proportion of anti-human RYK mAb bound to particles coated with RYK protein (y-axis) in the presence of increasing molar (M) concentration of soluble RYK competitor (x-axis) is shown for 2-D11 mAb (upper left panel) and 7-H10 mAb (lower left panel).

[9] = molecular target: T1, human RYK on the surface of human tumor …; experiment: flow cytometry, SKBR3 cells (breast), 5 ug/ml 2-D11-Alexa647
Experimental: as §1, §2

[10] = molecular target: T1, human RYK on the surface of human tumor …; experiment: flow cytometry, H460 cells (lung), 5 ug/ml 2-D11-Alexa647
Experimental: as §1, §2

[11] = molecular target: T1, human RYK on the surface of human tumor …; experiment: flow cytometry, SH-SY5Y cells (brain), 5 ug/ml 2-D11-Alexa647
Experimental: as §1, §2

[12] = molecular target: T1, human RYK on the surface of human tumor …; experiment: flow cytometry, BT549 cells (breast), 5 ug/ml 2-D11-Alexa647
Experimental: as §1, §2

[13] = molecular target: T1, human RYK on the surface of human tumor …; experiment: flow cytometry, HT29 cells (colon), 5 ug/ml 2-D11-Alexa647
Experimental: as §1, §2

[14] = molecular target: T1, human RYK on the surface of human tumor …; experiment: flow cytometry, MDA-MB-231 cells (breast), 5 ug/ml 2-D11-Alexa647; line unmarked (no staining)
Experimental: as §1, §2

[15] = molecular target: T1, human RYK on the surface of human tumor …; experiment: flow cytometry, CAPAN-2 cells (pancreas), 5 ug/ml 2-D11-Alexa647; line unmarked (no staining)
Experimental: as §1, §2

[16] = molecular target: T1, human RYK on the surface of human tumor …; experiment: flow cytometry, T24 cells (bladder), 5 ug/ml 2-D11-Alexa647
Experimental: as §1, §2

[17] = molecular target: T1, human RYK on the surface of human tumor …; experiment: flow cytometry, SW948 cells (colon), 5 ug/ml 2-D11-Alexa647; line unmarked (no staining)
Experimental: as §1, §2

[18] = molecular target: T1, human RYK on the surface of human tumor …; experiment: flow cytometry, MEC1 cells (CLL), 5 ug/ml 2-D11-Alexa647; line unmarked (no staining)
Experimental: as §1, §2

[19] = molecular target: T1, human RYK on the surface of human tumor …; experiment: flow cytometry, DU-145 cells (prostate), 5 ug/ml 2-D11-Alexa647; line unmarked (no staining)
Experimental: as §1, §2

T1 sequence (P34925 46-607 limits assumed, form in doubt): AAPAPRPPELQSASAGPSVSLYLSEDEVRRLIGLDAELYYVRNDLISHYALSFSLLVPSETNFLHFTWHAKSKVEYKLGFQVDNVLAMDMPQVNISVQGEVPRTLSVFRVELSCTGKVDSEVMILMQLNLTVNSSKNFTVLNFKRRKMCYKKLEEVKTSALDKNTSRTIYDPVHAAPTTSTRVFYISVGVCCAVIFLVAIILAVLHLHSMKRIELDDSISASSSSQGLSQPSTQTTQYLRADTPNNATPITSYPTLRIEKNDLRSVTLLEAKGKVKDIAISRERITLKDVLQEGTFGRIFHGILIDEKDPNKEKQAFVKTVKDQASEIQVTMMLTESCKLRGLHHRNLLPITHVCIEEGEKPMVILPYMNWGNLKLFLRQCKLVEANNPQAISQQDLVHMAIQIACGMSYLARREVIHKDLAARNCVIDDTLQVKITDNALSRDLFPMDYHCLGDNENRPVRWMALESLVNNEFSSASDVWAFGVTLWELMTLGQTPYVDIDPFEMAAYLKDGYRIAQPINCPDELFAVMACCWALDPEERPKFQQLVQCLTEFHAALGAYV
T2 sequence (P34925 46-227 limits assumed, form in doubt): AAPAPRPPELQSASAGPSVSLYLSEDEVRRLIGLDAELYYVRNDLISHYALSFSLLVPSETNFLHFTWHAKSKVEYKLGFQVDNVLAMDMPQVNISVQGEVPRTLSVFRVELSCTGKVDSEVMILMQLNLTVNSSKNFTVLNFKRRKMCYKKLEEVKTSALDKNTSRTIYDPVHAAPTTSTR

MFIR (MFI ratio to isotype control) [1]: 1.5
MFIR (MFI ratio to isotype control) [2]: 2
MFIR (MFI ratio to isotype control) [3]: 1.1
MFIR (MFI ratio to isotype control) [4]: 2.7
MFIR (MFI ratio to isotype control) [5]: 1.1
MFIR (MFI ratio to isotype control) [6]: 1.4
MFIR (MFI ratio to isotype control) [7]: 1.1
Kd [8]: 513 pM
MFIR (MFI ratio to isotype control) [9]: 1.6
MFIR (MFI ratio to isotype control) [10]: 1.5
MFIR (MFI ratio to isotype control) [11]: 2
MFIR (MFI ratio to isotype control) [12]: 3.9
MFIR (MFI ratio to isotype control) [13]: 2.2
MFIR (MFI ratio to isotype control) [14]: 1.1
MFIR (MFI ratio to isotype control) [15]: 1.3
MFIR (MFI ratio to isotype control) [16]: 1.6
MFIR (MFI ratio to isotype control) [17]: 1.1
MFIR (MFI ratio to isotype control) [18]: 1.1
MFIR (MFI ratio to isotype control) [19]: 1.3
B1: 2-D11 anti-human RYK mAb (antibody, V domains shown)
VH: QVQLKESGPGLVAPSQSLSITCSVSGFSLNDYGVNWVRQPPGKDLEWLGMIWGDGVTEYNSTLKSRLSISKDNSKSQVFLKMNNLQTEDTARYYCVRQGSGVWFAHWGQGTLVSVSS
VL: DVLVTQTPLSLPVSLGDQASISCRSSQTIVHSNGNTYLEWYLQKPGQSPKLLIYKVSNRFSGVPDRFSGSGSGTDFTLKISRVEAEDLGIYYCFQGSHVPYTFGGGTKLEIK
notes: Mouse hybridoma mAb, kappa light chain, detected with anti-mouse IgG; also called mAb 2-D11; 2-D11 anti-human RYK-Alexa647 conjugated mAb
